This is an account of results in paper PMC9482650, “Quantitative fragmentomics allow affinity mapping of interactomes” (Nature Communications, 2022).

What all share (experiment): holdup assay
Holding throughout (parameters): key: below the threshold = too weak to quantify, mostly under pKd 3.1 to 4
Holding throughout (conditions): plain residues with an end cap or a label only (N-terminal biotin on a linker: ado-ado)

For experiment [1], the target named is T1, NHERF3_3, Q5T2W1.
T1 sequence (Q5T2W1 238-333, limits assumed, looked up): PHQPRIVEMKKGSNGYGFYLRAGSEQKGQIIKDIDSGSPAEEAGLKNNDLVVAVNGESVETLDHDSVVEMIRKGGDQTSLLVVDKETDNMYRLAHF

In experiment [2] the target is GORASP2, Q9H8Y8.
The target in experiment [3] is T2, RAPGEF6, Q8TEU7.
T2 sequence (Q8TEU7 525-625, limits assumed, looked up): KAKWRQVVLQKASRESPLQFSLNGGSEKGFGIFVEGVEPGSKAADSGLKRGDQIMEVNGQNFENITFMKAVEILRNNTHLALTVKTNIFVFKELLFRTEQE

The target in experiment [4] is MAGI2_5, Q86UL8.
Experiment [5] deals with T3, PTPN13_1, Q12923.
T3 sequence (Q12923 1088-1188, limits assumed, looked up): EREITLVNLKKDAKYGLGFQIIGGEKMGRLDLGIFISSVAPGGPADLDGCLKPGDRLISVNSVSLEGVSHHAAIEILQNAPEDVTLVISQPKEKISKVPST

For experiment [6], the target named is LNX1_3, Q8TBB1.
The target in experiment [7] is PICK1, Q9NRD5.
In experiment [8] the target is T4, SYNJ2BP, P57105.
T4 sequence (P57105 8-110, limits assumed, looked up): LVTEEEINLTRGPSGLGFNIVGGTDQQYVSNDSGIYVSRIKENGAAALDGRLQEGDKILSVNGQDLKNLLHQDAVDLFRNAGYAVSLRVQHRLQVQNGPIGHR

For experiment [9], the target named is T5, PDZD2_2, O15018.
T5 sequence (O15018 329-429, limits assumed, looked up): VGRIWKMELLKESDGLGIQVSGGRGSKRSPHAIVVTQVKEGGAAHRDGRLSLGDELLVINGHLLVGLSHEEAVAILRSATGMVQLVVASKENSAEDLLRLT

The target of experiment [10] is TJP1_3, Q07157.
In experiment [11] the target is T6, LIN7A, O14910.
T6 sequence (O14910 103-200, limits assumed, looked up): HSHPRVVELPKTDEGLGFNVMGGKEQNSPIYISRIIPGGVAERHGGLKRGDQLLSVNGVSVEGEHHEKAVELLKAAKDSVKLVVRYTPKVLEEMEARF

In experiment [12] the target is T7, MPDZ_5, O75970.
T7 sequence (O75970 695-796, limits assumed, looked up): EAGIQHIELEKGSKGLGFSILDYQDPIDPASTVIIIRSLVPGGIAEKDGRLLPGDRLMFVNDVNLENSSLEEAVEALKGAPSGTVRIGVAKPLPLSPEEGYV

For experiment [13], the target named is FRMPD2_2, Q68DX3.
Experiment [14] has as its target T8, GRIP1_4, Q9Y3R0.
T8 sequence (Q9Y3R0 467-571, limits assumed, looked up): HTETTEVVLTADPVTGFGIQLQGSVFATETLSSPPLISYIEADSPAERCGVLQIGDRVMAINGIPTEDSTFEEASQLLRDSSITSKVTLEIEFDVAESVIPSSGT

Experiment [15] concerns the target T9, SNTB1, Q13884.
T9 sequence (Q13884 107-205, limits assumed, looked up): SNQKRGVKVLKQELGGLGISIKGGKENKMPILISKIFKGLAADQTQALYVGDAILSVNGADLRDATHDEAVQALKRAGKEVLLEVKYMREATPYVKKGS

For experiment [16], the target named is T10, DFNB31_3, Q9P202.
T10 sequence (Q9P202 811-907, limits assumed, looked up): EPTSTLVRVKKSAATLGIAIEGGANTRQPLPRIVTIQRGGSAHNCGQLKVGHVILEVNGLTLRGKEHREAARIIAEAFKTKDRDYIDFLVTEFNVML

Experiment [17] has as its target FRMPD3, Q5JV73.
The target in experiment [18] is T11, SNTG1, Q9NSN8.
T11 sequence (Q9NSN8 52-150, limits assumed, looked up): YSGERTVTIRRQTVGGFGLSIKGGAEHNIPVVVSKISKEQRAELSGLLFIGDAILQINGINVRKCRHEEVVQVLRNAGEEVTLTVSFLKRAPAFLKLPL

Experiment [19] addresses T12, LIN7C, Q9NUP9.
T12 sequence (Q9NUP9 88-185, limits assumed, looked up): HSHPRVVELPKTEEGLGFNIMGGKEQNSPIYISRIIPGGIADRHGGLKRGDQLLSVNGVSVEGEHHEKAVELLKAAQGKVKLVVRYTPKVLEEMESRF

Experiment [20] has as its target AHNAK1, Q09666.
Experiment [21] concerns the target T13, GRIP1_7, Q9Y3R0.
T13 sequence (Q9Y3R0 999-1096, limits assumed, looked up): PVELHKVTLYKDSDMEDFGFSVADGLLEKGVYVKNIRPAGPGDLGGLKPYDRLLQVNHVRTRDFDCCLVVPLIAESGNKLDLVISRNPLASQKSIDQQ

In experiment [22] the target is GRID2IP_1, A4D2P6.
Experiment [23] addresses MAST2, Q6P0Q8.
Experiment [24] addresses Inadl_5, Q8NI35.

Usually pKd stands for the negative decadic logarithm of the Kd, by convention in mol/L.

Sequence of MAST2, Q6P0Q8 (Q6P0Q8 1099-1202): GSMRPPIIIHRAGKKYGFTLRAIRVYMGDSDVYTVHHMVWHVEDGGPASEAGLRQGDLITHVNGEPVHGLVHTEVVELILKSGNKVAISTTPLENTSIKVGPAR
Sequence of GRID2IP_1, A4D2P6 (A4D2P6 1-87): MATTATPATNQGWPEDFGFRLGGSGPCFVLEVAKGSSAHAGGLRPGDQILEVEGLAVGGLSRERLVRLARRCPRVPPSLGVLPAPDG
Sequence of LNX1_3, Q8TBB1 (Q8TBB1 500-596): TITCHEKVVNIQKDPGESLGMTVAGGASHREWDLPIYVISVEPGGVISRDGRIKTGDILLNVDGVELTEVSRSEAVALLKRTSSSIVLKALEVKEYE
Sequence of FRMPD3, Q5JV73 (Q5JV73 12-100): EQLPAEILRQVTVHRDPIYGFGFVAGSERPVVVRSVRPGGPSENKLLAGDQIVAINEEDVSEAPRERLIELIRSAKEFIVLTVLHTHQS
Sequence of AHNAK1, Q09666 (Q09666 4-100): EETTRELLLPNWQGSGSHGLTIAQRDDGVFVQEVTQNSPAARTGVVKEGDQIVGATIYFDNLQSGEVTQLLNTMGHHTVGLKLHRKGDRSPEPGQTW
Sequence of TJP1_3, Q07157 (Q07157 416-512): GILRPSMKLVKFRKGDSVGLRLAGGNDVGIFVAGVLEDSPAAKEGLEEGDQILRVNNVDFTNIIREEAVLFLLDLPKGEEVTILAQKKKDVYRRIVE
Sequence of MAGI2_5, Q86UL8 (Q86UL8 915-1017): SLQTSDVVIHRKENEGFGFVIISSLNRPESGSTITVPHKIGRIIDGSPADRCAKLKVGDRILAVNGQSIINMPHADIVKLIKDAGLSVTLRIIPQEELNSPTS
Sequence of PICK1, Q9NRD5 (Q9NRD5 17-115): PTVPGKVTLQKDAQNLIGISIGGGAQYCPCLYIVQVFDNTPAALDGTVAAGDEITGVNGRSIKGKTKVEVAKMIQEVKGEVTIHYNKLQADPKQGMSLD
Sequence of FRMPD2_2, Q68DX3 (Q68DX3 944-1038): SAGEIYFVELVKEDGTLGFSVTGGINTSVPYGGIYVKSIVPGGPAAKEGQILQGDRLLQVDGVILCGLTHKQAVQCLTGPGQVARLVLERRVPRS
Sequence of Inadl_5, Q8NI35 (Q8NI35 673-780): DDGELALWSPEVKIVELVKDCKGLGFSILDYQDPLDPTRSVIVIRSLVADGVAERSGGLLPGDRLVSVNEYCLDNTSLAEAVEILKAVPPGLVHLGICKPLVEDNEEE

In the case of ASGLDKRDYV [CLDN9, O95484], the negative logarithm of the Kd (pKd) entry in experiment [1], in experiment [2], in experiment [3], in experiment [4], in experiment [5] and in experiment [6] was “below the threshold” throughout. Further, the pKd entry in [7] was “below the threshold”; in experiment [8], “below the threshold”; in experiment [9], 5.04; in [10], “below the threshold”; in experiment [11], “below the threshold”; in [12], “below the threshold”. The pKd result in experiment [13], in [14], in experiment [15], in experiment [16], in experiment [17] and in experiment [18] was “below the threshold” in each case. Moreover, the pKd is 4 in experiment [19]; “below the threshold” in experiment [20]; “below the threshold” in experiment [21]; “below the threshold” in [22]; 3.5 in [23]; “below the threshold” in experiment [24].
On to EWTDERQSKV [GAB3, Q8WWW8], for which the negative logarithm of the Kd (pKd) result in [1] is “below the threshold”; in experiment [2], “below the threshold”; in experiment [3], “below the threshold”; in experiment [4] it was 3.95; in experiment [5], “below the threshold”; in experiment [6] it was “below the threshold”. The pKd entry in experiment [7] was “below the threshold”; in [8], 3.72; in experiment [9], 5.23; in [10], “below the threshold”; in experiment [11], “below the threshold”; in experiment [12] it was “below the threshold”. The pKd in [13] is 3.52; in experiment [14] it was “below the threshold”; in experiment [15], 4.62; in experiment [16], “below the threshold”; in [17], “below the threshold”; in [18], 3.97. Further, the negative logarithm of the Kd (pKd) entry was “below the threshold” in experiment [19]; “below the threshold” in experiment [20]; “below the threshold” in experiment [21]; “below the threshold” in experiment [22]; 4.8 in experiment [23]; “below the threshold” in experiment [24].
As for PDSNPEESSV [SEMA4C, Q9C0C4], the negative-log Kd (pKd) result was “below the threshold” in experiment [1]; “below the threshold” in experiment [2]; “below the threshold” in experiment [3]; 3.89 in [4]; “below the threshold” in [5]; “below the threshold” in [6]. The pKd entry in [7] was “below the threshold”; in [8], 5.09; in experiment [9], 5.35; in [10], “below the threshold”; in experiment [11], “below the threshold”; in experiment [12], “below the threshold”. In addition, the negative-log Kd (pKd) in [13] was 4.27; in experiment [14], “below the threshold”; in [15], 4.46; in [16] it was “below the threshold”; in [17], “below the threshold”; in experiment [18], 4.65. Moreover, the pKd in experiment [19] was 3.56; in experiment [20], “below the threshold”; in experiment [21], “below the threshold”; in [22] it was “below the threshold”; in experiment [23], 5.36; in experiment [24], “below the threshold”.
In the case of NPETRDETQL [KCNT1, Q5JUK3], the pKd result in experiment [1] is “below the threshold”; in experiment [2], “below the threshold”; in experiment [3] it was “below the threshold”; in experiment [4], 3.75; in [5] it was 3.54; in experiment [6] it was “below the threshold”. Also, the pKd entry was “below the threshold” in experiment [7]; 4.43 in experiment [8]; 3.72 in [9]; “below the threshold” in experiment [10]; “below the threshold” in [11]; “below the threshold” in experiment [12]. For the same molecule, the pKd entry in [13] was “below the threshold”; in experiment [14], “below the threshold”; in experiment [15], 4.35; in [16], 4.01; in experiment [17] it was “below the threshold”; in experiment [18], “below the threshold”. The pKd is 3.68 in experiment [19]; “below the threshold” in [20]; “below the threshold” in experiment [21]; “below the threshold” in experiment [22]; 5.68 in [23]; “below the threshold” in experiment [24].
